Laboratory results reported in patent US20240287172A1 (SCIRHOM, published 2024).
Changes are numbered by the printed parent chain.

T1: hiR2-FL-E557D-T7 (human, UniProt Q6PJF5 1-856)
T1 sequence: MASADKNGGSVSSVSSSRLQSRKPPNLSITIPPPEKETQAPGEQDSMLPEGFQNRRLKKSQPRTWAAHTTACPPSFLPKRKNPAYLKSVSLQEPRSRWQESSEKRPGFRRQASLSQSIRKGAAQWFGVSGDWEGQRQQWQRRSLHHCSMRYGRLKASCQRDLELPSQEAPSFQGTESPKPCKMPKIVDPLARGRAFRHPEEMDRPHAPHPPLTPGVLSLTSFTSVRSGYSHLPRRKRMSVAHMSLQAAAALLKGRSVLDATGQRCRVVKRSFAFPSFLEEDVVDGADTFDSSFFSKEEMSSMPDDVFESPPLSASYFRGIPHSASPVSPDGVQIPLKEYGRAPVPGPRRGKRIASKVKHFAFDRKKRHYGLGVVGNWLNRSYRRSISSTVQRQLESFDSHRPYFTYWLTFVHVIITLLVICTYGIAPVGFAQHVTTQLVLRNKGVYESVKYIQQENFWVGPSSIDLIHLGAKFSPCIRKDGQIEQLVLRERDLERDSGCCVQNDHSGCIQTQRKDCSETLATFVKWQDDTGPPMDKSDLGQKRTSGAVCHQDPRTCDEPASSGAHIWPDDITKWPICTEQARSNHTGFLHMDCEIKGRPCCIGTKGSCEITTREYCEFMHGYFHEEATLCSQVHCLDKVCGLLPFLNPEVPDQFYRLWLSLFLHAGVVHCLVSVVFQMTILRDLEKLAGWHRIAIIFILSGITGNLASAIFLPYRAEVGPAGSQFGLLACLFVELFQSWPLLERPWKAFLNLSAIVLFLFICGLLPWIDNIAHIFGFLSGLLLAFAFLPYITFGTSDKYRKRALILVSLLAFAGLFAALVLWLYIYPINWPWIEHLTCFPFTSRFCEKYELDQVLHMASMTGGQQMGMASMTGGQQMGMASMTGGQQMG

T2: hiR2-FL-Q527P-T7 (human, UniProt Q6PJF5 1-856)
T2 sequence: T1 sequence with Q527P, D557E

B1: antibody 5 (antibody, V domains shown)
VH: QVTLKESGPGILQPSQTLSLTCSFSGFSLSTFGMGVGWIRQPSGKGLEWLAHIWWDDEKYYNSALKSRLTISKATSKNQAFLKIANVDTADTATYYCARISNYGSNYWYFNVWGTGTTVTVSS
VL: QVVLTQSPALMSASPGEKVTMTCSAGSSVSCMYWYQQKPGSSPRVLIYDTSNLASGVPARFTGSGSGTSYSLTISRMEAEDAASYYCQQWNSYPLTFGAGTKLELK
notes: mouse IgG, kappa light chain; also called clone #5; purified antibody 5
B2: antibody 22 (antibody, V domains shown)
VH: B1 VH with A80V
VL: B1 VL with C31Y, S84T
notes: mouse IgG, kappa light chain; also called clone #22; purified antibody 22
B3: antibody 42 (antibody, V domains shown)
VH: B1 VH with F24L, M34R, S63P, A74D, A80V, K83R, S101Q, N111D
VL: LIVLTQSPAIMSASPGEKVTMTCGATSRISYMFWYQQKPGSSPRVLIYDTSNLASGVPVRFSGSGSGTSYSLTISRVEAEDVATYYCQQWNSYPLTFGAGTKLELK
notes: mouse IgG, kappa light chain; also called clone #42; purified antibody 42
B4: antibody 3 (antibody, V domains shown)
VH: QVTLKESGPGILQPSQTLSLTCSFSGFSLTTFAMGIGWVRQPSGKGLEWLAHIWWDGEKYNNPVLKSRLTISKDTSKNQVFLRIANVDTPDTATYYCARISSIYYIIDNWGQGTSVTVSS
VL: DIVLTQSPATLSVTPGHSVSLSCRASQSISNNLHWYQKKSHESPRLLIKYVSQSISGIPSRFSGSGSGTDFTLSINSVETEDFGMYFCQQSYNWPLTFGAGTKLELK
notes: mouse IgG, kappa light chain; also called clone #3; purified antibody 3
B5: antibody 34 (antibody, V domains shown)
VH: QVTLKESGPGILQPSQTLSLTCSFSGFSLSTFSLGVGWIRQSSGKGLEWLAHIWWDDEKYYNPALKSRLTISKDTSKNQVFLKIANVDAADTATYYCARAYYSKSYYALDYWGQGTSVTVSS
VL: DIQMTQSPSSLSASLGERVSLTCRASQEISGYLSWLQQKPDGTIKRLIYAASTLDSGVPKRFSGSRSGSDYSLAISSLESEDFADYYCLQYANFPFTFGSGTKLEIK
notes: mouse IgG, kappa light chain; also called clone #34; purified antibody 34
B6: antibody 43 (antibody, V domains shown)
VH: B1 VH with T3A, P42S, H52N, E58D, S63P, A74D, T75A, S101G, N111D
VL: B3 VL with L1Q, K18R, G24S, T26N, F33Y, V45L, V77M, V82A, Y86N, N91S
notes: mouse IgG, kappa light chain; also called clone #43; purified antibody 43
B7: antibody 44 (antibody, V domains shown)
VH: B1 VH with G44E, E58D, S63P, A74D, A80I, A85T, D91E, A98S, S101G, N111D
VL: QIVLTQSPAVMSASPGEKVTMTCTASSSVYYMYWYQQTPGSSPRLLIYDTSNLASGVPVRFSGSGSGTSYSLTISRMEAEDAATYYCQQWNTYPLTFGAGTKLELK
notes: mouse IgG, kappa light chain; also called clone #44; purified antibody 44
B8: antibody 48 (antibody, V domains shown)
VH: QVQLQQSGTELVRPGTSVKVSCKASGYAFTNYLIEWVKQRPGQGLEWIGVINPGSGFTKYNEKFKGKATLTADKSSSTVYMHLSSLTSEDSAVYFCARGLYRAMDYWGQGTSVTVSS
VL: DIQMTQSPASQSASLGESVTITCLASQTIATWLAWYQQKPGKSPQLLIYGATTLADGVPSRFSGGGSGTKFSFKISSLQAEDFVSYYCQQLYSTPYTFGGGTKLEIK
notes: mouse IgG, kappa light chain; also called clone #48; purified antibody 48
B9: antibody 50 (antibody, V domains shown)
VH: B8 VH with T9A, T16A, T30S, V79A, H82Q
VL: B8 VL with A30G, G50A, T52A, T53S, S85N, L91I
notes: mouse IgG, kappa light chain; also called clone #50; purified antibody 50

What was measured:
hiR2-FL-E557D-T7 = biological target: T1, hiR2-FL-E557D-T7; assay: FACS, MEF-DKO cells, 3 µg/ml
From the text: (§1) In brief, immortalized MEF-DKO-hiR2-FL-G498A-T7, MEF-DKO-hiR2-FL-Q502R-T7, MEF-DKO-hiR2-FL-I509V-T7, MEF-DKO-hiR2-FL-Q512S-T7, MEF-DKO-hiR2-FL-R513E-T7, MEF-DKO-hiR2-FL-K514E-T7, MEF-DKO-hiR2-FL-D515E-T7, MEF-DKO-hiR2-FL-E518S-T7, MEF-DKO-hiR2-FL-T522V-T7, MEF-DKO-hiR2-FL-F523W-T7, MEF-DKO-hiR2-FL-Q527P-T7, MEF-DKO-hiR2-FL-D528I-T7, MEF-DKO-hiR2-FL-D529H-T7, MEF-DKO-hiR2-FL-T530P-T7, MEF-DKO-hiR2-FL-G531S-T7, MEF-DKO-hiR2-FL-P532A-T7, MEF-DKO-hiR2-FL-M534-T7, MEF-DKO-hiR2-FL-D535-T7, MEF-DKO-hiR2-FL-K536-T7, MEF-DKO-hiR2-FL-S537E-T7, MEF-DKO-hiR2-FL-D538L-T7, MEF-DKO-hiR2-FL-L539A-T7, MEF-DKO-hiR2-FL-Q541H-T7, MEF-DKO-hiR2-FL-T544Q-T7, MEF-DKO-hiR2-FL-S545F-T7, MEF-DKO-hiR2-FL-A547S-T7, MEF-DKO-hiR2-FL-T555V-T7, MEF-DKO-hiR2-FL-E557D-T7, MEF-DKO-hiR2-FL-A560S-T7 and MEF-DKO-hiR2-FL-S562E-T7 cells were harvested with 10 mM EDTA in PBS, washed and resuspended in FACS buffer (PBS, 3% FBS, 0.05% sodium azide), and seeded in Nunc U-bottom 96-well plates (Thermo Fisher Scientific, USA) at approximately 3×10⁵ cells per well. To pellet cells and remove supernatants, the plates were centrifuged at 1,500 rpm and 4° C. for 3 minutes. For primary staining, cells were resuspended in 100 μl per well of either FACS buffer alone (controls) or the purified antibodies 3, 5, 16, 22, 34, 42, 43, 44, 48, and 50 of the invention at 3 μg/ml in FACS buffer and incubated on ice for 1 hour. Afterwards, plates were centrifuged at 1,500 rpm and 4° C. for 3 minutes and washed twice with 200 μl per well of FACS buffer. For secondary staining, cells were spun down and resuspended in 100 μl per well of PE-conjugated goat anti-mouse IgG F(ab′)2 detection fragment (Dianova, Germany) diluted 1:100 in FACS buffer. Protected from light, the cell suspensions were incubated on ice for 1 hour. Plates were then centrifuged at 1,500 rpm and 4° C. for 3 minutes and washed three times with 200 μl per well of FACS buffer. Finally, cells were resuspended in 150 μl per well of FACS buffer and analyzed using a BD Accuri™ C6 Plus flow cytometer (Becton Dickinson, Germany).

hiR2-FL-Q527P-T7 = biological target: T2, hiR2-FL-Q527P-T7; assay: FACS, MEF-DKO cells, 3 µg/ml
From the text: as §1

Row | Binder | loss of binding vs wild type (hiR2-FL-E557D-T7) [%] | loss of binding vs wild type (hiR2-FL-Q527P-T7) [%]
1 | B1 | ≥ 60 | ≥ 60
2 | B2 | ≥ 30 | 
3 | B3 | ≥ 30 | ≥ 30
4 | B4 | ≥ 60 | ≥ 30
5 | B5 | ≥ 60 | 
6 | B6 | ≥ 30 | ≥ 60
7 | B7 | ≥ 30 | ≥ 60
8 | B8 | ≥ 30 | ≥ 30
9 | B9 | ≥ 30 | ≥ 30
